Source: PMC4646322 (The Journal of Biological Chemistry, 2015)

B1: E. coli TolR(60–133), truncated TolR (domain or fragment, Escherichia coli K12)
chain: GAMDNPPVIVEVSGIGQYTVVVEKDRLERLPPEQVVAEVSSRFKANPKTVFLIGGAKDVPYDEIIKALNLLHSAGVK
notes: three residues left at the N terminus after cleavage by tobacco etch virus protease; TolR, Escherichia coli K12, residues 60-133 (N- and C-terminal strand-swapped regions deleted); expected mass 8314.6 Da; Dimer that dissociates already at 200 μM; also called TolR24; source: E. coli BL21 DE3, purified (HisTrap, TEV cleavage, Superdex75); not shown: His6, N-terminal, cleaved
B2: E. coli TolR(64–142) (domain or fragment, Escherichia coli K12)
chain: GAMVIVEVSGIGQYTVVVEKDRLERLPPEQVVAEVSSRFKANPKTVFLIGGAKDVPYDEIIKALNLLHSAGVKSVGLMTQPI
notes: three residues left at the N terminus after cleavage by tobacco etch virus protease; expected mass 8818.3 Da; Dimer that dissociates on dilution; source: E. coli BL21 DE3, purified (HisTrap, TEV cleavage, Superdex75); not shown: His6, N-terminal, cleaved
B3: E. coli TolR(36–142), intact periplasmic domain of TolR (domain or fragment, Escherichia coli K12)
chain: GAMAPIITQSVEVDLPDATESQAVSSNDNPPVIVEVSGIGQYTVVVEKDRLERLPPEQVVAEVSSRFKANPKTVFLIGGAKDVPYDEIIKALNLLHSAGVKSVGLMTQPI
notes: three residues left at the N terminus after cleavage by tobacco etch virus protease; expected mass of the monomer 11,695.4 Da; Vector pETM-11; also called TolR21; source: E. coli BL21 DE3, purified (HisTrap, TEV cleavage, Superdex75); not shown: His6, N-terminal, cleaved
B4: E. coli TolR(36–133) (domain or fragment, Escherichia coli K12)
chain: GAMAPIITQSVEVDLPDATESQAVSSNDNPPVIVEVSGIGQYTVVVEKDRLERLPPEQVVAEVSSRFKANPKTVFLIGGAKDVPYDEIIKALNLLHSAGVK
notes: three residues left at the N terminus after cleavage by tobacco etch virus protease; TolR, Escherichia coli K12, residues 36-133 (9 C-terminal residues deleted); expected mass 10,768.2 Da; Dimer that dissociates on dilution; essentially monomeric at low micromolar concentrations; source: E. coli BL21 DE3, purified (HisTrap, TEV cleavage, Superdex75); not shown: His6, N-terminal, cleaved

Columns and labels:
[1] = target: the molecule itself; experiment: SEC-MALS; SEC-MALLS, Superdex75 10/300, 50 mM Tris pH 7.5, 150 mM NaCl; samples loaded at 20, 200 or 500 μM
[2] = target: the molecule itself; experiment: AUC; sedimentation equilibrium, 20 and 200 μM TolR(36–142), 15,000-35,000 rpm, 20 h at each speed, 50 mM Tris pH 7.5, 150 mM NaCl, 20 °C, interference optics; self-association model

Protein | binding result [1] | stoichiometry N [2]
B1 | binds | 
B2 | binds | 
B3 |  | 2
B4 | binds | 
